Entries after “also recorded” stand apart in the source; their conditions may differ.
Key:
[1] = target: F-actin (UniProt P68135)
[2] = target: T1, β-cardiac myosin S1 (Sus scrofa, UniProt P79293); assay: Microscale thermophoresis direct binding; set-up: species or system Porcine
T1 construct: S1 and HMM fragments were produced by proteolytic digestion of the full-length proteins with 0.05 mg/ml papain; from tissue; host or cells: porcine cardiac muscle
Description: Proteolytic fragments were further purified by actin-coprecipitation.

[3] = target: β-cardiac myosin (Sus scrofa, UniProt P79293); assay: Steady-state basal and actin-activated Mg2+-ATPase (NADH-coupled assay); type: biochemical, Porcine; conditions: β-cardiac myosin S1, dose-dependence
Experimental: Rabbit fast skeletal muscle heavy meromyosin (HMM) was prepared as described by [Margossian and Lowey (1982)]. Porcine β-cardiac myosin was prepared essentially as described by [Pant et al. (2009)] and [Jacques et al. (2008)] and further purified by gel filtration. S1 and HMM fragments were produced by proteolytic digestion of the full-length proteins with 0.05 mg/ml papain (10 min, 25°C) for S1 and with 0.1 mg/ml TLCK-treated α-chymotrypsin (15 min, 25°C) for HMM. Reactions were stopped with specific protease inhibitors for papain (10 µM E−64) and chymotrypsin (10 µM chymostatin, 1 mM benzamidine). Proteolytic fragments were further purified by actin-coprecipitation. Pellets were washed twice and myosin was extracted from the pellets using ATP containing buffer. Gel filtration was used to further increase purity of myosin S1 and HMM fragments. His-tagged motor domain constructs of Dd myosin-2, Dd myosin-1B, Dd myosin-1C, Dd myosin-1D, Dd myosin-1E, Dd myosin-5b fused to two Dd α-actinin repeats substituting the light-chain binding domains ([Anson et al., 1996]) were expressed in Dd AX3-ORF + cells and purified by Ni^2+-chelate affinity chromatography ([Manstein and Hunt, 1995]).
Basal and actin-activated Mg^2+-ATPase activities were measured using the NADH-coupled assay described previously ([Furch et al., 1998]) adapted for higher throughput screens for a temperature controlled plate reader (Multiscan FC, Thermo Scientific, Waltham, MA) at 25°C. […] Control measurements were carried out in the absence of drug, as well as in the presence of according concentrations of the non-binding (−)-enantiomer EMD 57439 to account for possible absorption effects. […] Data points are mean values from 3 to 5 independent experiments. Error bars indicate standard deviations.

[4] = system: phosphodiesterase III; set-up: method as in Gambassi et al., 1993; conditions: ref Gambassi et al., 1993; cited from earlier work

Sequence of β-cardiac myosin (P79293 1-810 limits assumed): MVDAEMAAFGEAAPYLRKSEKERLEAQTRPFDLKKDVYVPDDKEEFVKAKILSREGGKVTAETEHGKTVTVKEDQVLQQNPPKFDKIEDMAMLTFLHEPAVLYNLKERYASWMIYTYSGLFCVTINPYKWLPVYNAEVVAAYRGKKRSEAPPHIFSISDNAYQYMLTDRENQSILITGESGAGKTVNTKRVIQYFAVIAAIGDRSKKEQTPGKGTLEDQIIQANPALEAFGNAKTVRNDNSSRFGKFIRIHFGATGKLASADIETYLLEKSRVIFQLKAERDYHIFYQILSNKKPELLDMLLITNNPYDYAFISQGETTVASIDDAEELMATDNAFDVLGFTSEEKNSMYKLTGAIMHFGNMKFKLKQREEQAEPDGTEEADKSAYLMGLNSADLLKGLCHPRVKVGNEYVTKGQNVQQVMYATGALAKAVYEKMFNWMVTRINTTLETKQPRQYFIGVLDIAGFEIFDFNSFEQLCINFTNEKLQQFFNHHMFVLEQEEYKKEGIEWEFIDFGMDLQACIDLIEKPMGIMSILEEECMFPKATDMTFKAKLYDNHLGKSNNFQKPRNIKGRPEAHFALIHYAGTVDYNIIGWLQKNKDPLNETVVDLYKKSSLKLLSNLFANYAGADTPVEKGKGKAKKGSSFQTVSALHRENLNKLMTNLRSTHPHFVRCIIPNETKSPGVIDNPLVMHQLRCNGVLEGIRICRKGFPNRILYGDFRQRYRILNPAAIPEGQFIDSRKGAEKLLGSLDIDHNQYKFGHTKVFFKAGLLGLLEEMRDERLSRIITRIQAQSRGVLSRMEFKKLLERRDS
T1 sequence (P79293 1-843 limits assumed): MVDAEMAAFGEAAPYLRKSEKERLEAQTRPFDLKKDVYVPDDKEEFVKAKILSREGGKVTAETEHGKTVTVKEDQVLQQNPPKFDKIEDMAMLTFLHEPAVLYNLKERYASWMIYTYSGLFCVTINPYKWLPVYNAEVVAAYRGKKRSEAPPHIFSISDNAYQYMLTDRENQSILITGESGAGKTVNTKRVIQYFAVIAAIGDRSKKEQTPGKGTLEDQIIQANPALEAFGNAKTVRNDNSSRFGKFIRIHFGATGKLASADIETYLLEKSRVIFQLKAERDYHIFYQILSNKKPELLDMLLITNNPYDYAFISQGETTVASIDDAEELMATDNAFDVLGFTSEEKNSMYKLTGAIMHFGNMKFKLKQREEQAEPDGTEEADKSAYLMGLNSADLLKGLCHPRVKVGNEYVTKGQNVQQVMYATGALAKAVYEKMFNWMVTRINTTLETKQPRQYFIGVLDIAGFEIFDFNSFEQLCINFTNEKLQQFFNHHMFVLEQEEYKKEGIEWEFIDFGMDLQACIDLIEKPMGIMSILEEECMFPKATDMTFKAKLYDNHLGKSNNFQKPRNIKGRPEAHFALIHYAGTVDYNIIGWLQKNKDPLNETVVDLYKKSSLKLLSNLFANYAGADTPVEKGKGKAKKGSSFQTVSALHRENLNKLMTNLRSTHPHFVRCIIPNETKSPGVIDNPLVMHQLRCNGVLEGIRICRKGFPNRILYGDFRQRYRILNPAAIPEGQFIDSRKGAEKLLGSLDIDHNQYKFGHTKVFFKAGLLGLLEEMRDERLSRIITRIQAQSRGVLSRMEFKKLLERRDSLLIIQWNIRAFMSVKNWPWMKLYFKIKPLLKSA

“β-cardiac myosin (from UniProt P79293 1-1935) (natural protein)” gave a K M(Actin): F-actin concentration for half-maximal activation of the steady-state ATPase, control without EMD 57033 [1] of 36.8 µM, a K M(Actin): F-actin concentration for half-maximal activation of the steady-state ATPase, with 25 µM EMD 57033 [1] of 3.6 µM and a kcat/K M(Actin) of the actin-activated ATPase, calculated ratio, control without EMD 57033 [1] of 3260 M⁻¹ s⁻¹. The kcat/K M(Actin) of the actin-activated ATPase, calculated ratio, with 25 µM EMD 57033 [1] was 0.0528 µM^v1 s^−1.

In the case of `COc1ccc(C(=O)N2CCCc3cc(C4=NNC(=O)SC4C)ccc32)cc1OC` (stereo not shown) [EMD 57439], the “Binding (in words)” value [2] is listed as “Neither binding nor activation was observed”, the “Activation of the actin-activated ATPase (in words)” value [3] is listed as “Neither binding nor activation was observed; also recorded: no activation” and the “Phosphodiesterase III inhibition” value [4] is listed as “potent phosphodiesterase III inhibitor”.
